Measured values published in US20250262210A1 (TRUSTEES OF COLUMBIA UNIVERSITY IN THE CITY OF NEW YORK, published 2025).

Assays:
Test in all cases: IP/MS, LZTR1 R810W-FLAG, U87
[1] = target: T1, FBX038 (human, UniProt Q6PIJ6 1-1188, limits assumed)
T1 construct: Printed with a zero; probably FBXO38
T1 sequence (looked up): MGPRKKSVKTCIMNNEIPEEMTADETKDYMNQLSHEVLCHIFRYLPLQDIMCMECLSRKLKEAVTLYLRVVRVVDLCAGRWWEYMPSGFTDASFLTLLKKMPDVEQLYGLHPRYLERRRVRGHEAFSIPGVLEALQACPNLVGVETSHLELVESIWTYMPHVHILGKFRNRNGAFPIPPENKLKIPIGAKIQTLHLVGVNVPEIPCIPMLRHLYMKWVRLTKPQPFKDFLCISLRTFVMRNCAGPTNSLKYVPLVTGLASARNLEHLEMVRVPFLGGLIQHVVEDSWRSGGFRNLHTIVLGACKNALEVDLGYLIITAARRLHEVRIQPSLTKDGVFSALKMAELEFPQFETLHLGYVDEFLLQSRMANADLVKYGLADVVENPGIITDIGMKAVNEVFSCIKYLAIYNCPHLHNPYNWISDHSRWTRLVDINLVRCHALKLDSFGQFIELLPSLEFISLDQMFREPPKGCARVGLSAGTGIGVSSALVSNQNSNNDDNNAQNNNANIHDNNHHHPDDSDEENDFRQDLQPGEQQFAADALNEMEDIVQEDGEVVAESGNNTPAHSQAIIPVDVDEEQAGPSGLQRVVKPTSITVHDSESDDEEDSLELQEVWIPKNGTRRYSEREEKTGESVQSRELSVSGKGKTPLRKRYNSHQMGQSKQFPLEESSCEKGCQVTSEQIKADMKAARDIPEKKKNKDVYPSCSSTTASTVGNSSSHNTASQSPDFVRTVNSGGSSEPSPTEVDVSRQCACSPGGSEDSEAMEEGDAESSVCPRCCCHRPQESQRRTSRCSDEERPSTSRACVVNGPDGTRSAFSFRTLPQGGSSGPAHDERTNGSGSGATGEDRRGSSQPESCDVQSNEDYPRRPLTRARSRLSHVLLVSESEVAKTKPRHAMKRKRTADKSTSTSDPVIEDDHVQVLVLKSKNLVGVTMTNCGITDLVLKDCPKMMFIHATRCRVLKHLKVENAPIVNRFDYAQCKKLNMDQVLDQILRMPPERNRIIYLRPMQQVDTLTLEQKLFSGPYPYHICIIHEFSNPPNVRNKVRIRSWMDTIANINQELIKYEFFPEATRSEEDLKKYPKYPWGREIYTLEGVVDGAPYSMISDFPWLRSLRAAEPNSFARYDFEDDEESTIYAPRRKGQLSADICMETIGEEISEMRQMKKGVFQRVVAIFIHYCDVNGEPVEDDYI
How it was run: (§1)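 Gel slices were reduced with 5 mM DTT, alkylated with 11 mM IAA and digested overnight at 37° C. with trypsin. Peptides were analysed on an Orbitrap Fusion Tribrid by LC-MS/MS.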

[2] = target: T2, SMPD4 (human, UniProt Q9NXE4 1-866, limits assumed)
T2 sequence (looked up): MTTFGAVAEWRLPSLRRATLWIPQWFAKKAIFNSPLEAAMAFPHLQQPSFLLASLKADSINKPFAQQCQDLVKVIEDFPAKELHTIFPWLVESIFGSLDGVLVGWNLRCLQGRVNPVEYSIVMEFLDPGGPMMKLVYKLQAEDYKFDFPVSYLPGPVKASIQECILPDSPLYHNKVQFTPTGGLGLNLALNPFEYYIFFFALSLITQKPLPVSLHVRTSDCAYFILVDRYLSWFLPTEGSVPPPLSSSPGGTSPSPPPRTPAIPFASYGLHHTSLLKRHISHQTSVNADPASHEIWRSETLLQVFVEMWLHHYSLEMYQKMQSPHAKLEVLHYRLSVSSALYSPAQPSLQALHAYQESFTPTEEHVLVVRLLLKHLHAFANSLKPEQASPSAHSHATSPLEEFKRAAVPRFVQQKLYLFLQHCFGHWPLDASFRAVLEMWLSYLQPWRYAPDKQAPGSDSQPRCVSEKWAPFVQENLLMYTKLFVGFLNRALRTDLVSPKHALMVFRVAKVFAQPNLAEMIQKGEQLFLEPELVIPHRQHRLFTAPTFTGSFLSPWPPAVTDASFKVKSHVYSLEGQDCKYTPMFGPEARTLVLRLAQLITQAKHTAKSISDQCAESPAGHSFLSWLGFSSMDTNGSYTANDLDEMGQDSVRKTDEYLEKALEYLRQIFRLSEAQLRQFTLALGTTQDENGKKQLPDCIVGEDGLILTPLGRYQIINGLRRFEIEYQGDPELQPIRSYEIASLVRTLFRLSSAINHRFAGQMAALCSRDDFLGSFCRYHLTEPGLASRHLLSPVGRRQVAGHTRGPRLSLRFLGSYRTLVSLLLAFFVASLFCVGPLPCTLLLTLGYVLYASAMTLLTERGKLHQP
How it was run: as §1

[3] = target: ARHGAP31 (human, UniProt Q2M1Z3 1-1444)
How it was run: as §1

Measured: binding result

Chain of ARHGAP31 (Q2M1Z3 whole entry): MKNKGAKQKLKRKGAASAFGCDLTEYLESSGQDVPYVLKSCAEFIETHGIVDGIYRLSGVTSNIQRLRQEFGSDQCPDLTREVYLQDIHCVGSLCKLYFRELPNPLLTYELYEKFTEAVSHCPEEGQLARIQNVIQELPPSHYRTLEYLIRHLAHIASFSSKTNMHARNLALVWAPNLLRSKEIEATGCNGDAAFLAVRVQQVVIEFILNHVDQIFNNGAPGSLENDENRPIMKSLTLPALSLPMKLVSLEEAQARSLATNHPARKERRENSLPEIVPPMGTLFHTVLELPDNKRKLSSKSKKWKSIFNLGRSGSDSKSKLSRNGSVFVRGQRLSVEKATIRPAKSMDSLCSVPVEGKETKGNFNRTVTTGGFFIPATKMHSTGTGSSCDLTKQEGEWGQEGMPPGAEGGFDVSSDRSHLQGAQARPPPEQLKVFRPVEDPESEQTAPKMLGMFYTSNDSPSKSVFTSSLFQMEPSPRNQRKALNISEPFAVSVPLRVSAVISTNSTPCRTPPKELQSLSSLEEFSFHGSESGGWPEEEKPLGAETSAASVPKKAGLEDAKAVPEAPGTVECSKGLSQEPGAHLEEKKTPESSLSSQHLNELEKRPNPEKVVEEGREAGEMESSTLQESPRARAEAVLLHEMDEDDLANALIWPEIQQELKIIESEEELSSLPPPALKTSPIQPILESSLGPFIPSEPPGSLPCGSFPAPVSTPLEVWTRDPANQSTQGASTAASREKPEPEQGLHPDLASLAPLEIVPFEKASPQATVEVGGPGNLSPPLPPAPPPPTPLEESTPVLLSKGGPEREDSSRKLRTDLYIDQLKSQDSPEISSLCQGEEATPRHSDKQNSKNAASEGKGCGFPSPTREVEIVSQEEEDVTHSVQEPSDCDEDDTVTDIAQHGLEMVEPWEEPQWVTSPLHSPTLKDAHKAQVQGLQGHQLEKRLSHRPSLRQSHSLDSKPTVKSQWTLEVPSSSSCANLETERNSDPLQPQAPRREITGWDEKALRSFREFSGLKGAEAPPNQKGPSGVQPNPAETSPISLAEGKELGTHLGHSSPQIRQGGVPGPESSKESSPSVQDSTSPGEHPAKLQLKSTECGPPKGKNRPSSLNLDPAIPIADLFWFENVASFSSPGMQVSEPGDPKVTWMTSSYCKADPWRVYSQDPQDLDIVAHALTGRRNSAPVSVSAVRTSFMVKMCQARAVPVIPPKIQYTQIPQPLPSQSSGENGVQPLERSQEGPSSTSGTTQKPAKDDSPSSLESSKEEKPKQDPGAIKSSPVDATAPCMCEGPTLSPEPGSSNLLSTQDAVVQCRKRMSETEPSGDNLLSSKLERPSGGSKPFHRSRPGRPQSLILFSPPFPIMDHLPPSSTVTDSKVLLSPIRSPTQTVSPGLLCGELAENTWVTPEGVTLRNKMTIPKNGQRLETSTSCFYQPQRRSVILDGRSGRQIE

B1: LZTR1 R810W-FLAG (other, human, UniProt Q8N653 1-840, looked up)
chain: MAGPGSTGGQIGAAALAGGARSKVAPSVDFDHSCSDSVEYLTLNFGPFETVHRWRRLPPCDEFVGARRSKHTVVAYKDAIYVFGGDNGKTMLNDLLRFDVKDCSWCRAFTTGTPPAPRYHHSAVVYGSSMFVFGGYTGDIYSNSNLKNKNDLFEYKFATGQWTEWKIEGRLPVARSAHGATVYSDKLWIFAGYDGNARLNDMWTIGLQDRELTCWEEVAQSGEIPPSCCNFPVAVCRDKMFVFSGQSGAKITNNLFQFEFKDKTWTRIPTEHLLRGSPPPPQRRYGHTMVAFDRHLYVFGGAADNTLPNELHCYDVDFQTWEVVQPSSDSEVGGAEVPERACASEEVPTLTYEERVGFKKSRDVFGLDFGTTSAKQPTQPASELPSGRLFHAAAVISDAMYIFGGTVDNNIRSGEMYRFQFSCYPKCTLHEDYGRLWESRQFCDVEFVLGEKEECVQGHVAIVTARSRWLRRKITQARERLAQKLEQEAAPVPREAPGVAAGGARPPLLHVAIREAEARPFEVLMQFLYTDKIKYPRKGHVEDVLLIMDVYKLALSFQLCRLEQLCRQYIEASVDLQNVLVVCESAARLQLSQLKEHCLNFVVKESHFNQVIMMKEFERLSSPLIVEIVRRKQQPPPRTPLDQPVDIGTSLIQDMKAYLEGAGAEFCDITLLLDGHPRPAHKAILAARSSYFEAMFRSFMPEDGQVNISIGEMVPSRQAFESMLRYIYYGEVNMPPEDSLYLFAAPYYYGFYNNRLQAYCKQNLEMNVTVQNVLQILEAADKTQALDMKRHCLHIIVHQFTKVSKLPTLWSLSQQLLLDIIDSLASHISDKQCAELGADI
notes: Stably expressed in U87 cells by lentivirus; also called LZTR1-FLAG-R810W; LZTR1 RW; not shown: FLAG tag
binds: [1] | [2] | [3]
